In patent US12723255B2, “Herbicide tolerance genes and methods of use thereof” (priority 2014, dated 2026):

Key:
Format in all cases: in vivo
F1 hybrid maize plants [1] = assay: efficacy field trial for quizalofop-P tolerance and clethodim sensitivity; details: for tolerance to the quizalofop-P application: 1.28 lb ai/acre (16×); for average injury rating, V4 Growth Stage, 4x Quizalofop / average injury rating, V8 Growth Stage, 4x Quizalofop / average injury rating, V4 Growth Stage, 8x Quizalofop / average injury rating, V8 Growth Stage, 8x Quizalofop / average injury rating, V4 Growth Stage, 16x Quizalofop / average injury rating, V8 Growth Stage, 16x Quizalofop / average injury rating, V8 Growth Stage, 1x Clethodim: scale 0 to 100; for average injury rating, V4 Growth Stage, 4x Quizalofop / average injury rating, V8 Growth Stage, 4x Quizalofop: 0.32 lb ai/acre at VE-V2, V4, V8; for average injury rating, V4 Growth Stage, 4x Quizalofop / average injury rating, V8 Growth Stage, 4x Quizalofop / average injury rating, V4 Growth Stage, 8x Quizalofop / average injury rating, V8 Growth Stage, 8x Quizalofop / average injury rating, V4 Growth Stage, 16x Quizalofop / average injury rating, V8 Growth Stage, 16x Quizalofop: with CTP unless label says no CTP; for average injury rating, V4 Growth Stage, 8x Quizalofop / average injury rating, V8 Growth Stage, 8x Quizalofop: 0.64 lb ai/acre at VE-V2, V4, V8; for average injury rating, V4 Growth Stage, 16x Quizalofop / average injury rating, V8 Growth Stage, 16x Quizalofop: 1.28 lb ai/acre at VE-V2, V4, V8; for average injury rating, V8 Growth Stage, 1x Clethodim: clethodim 0.25 lb ai/acre at V8, volunteer control
Outline: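 F1 hybrids of MON89034 × R1 plants carrying MON-HT constructs, NK603×MON89034 control, at two sites. Quizalofop-P at 0.32, 0.64 or 1.28 lb ai/acre + 0.25% v/v NIS at VE-V2, V4 and V8; clethodim 0.25 lb ai/acre + NIS at V8. Injury rated visually 0–100 at 10-14 days after application.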

F1 hybrid maize plants [2] = assay: trait efficacy field trial, 2,4-D pressure screening, F1 hybrid; details: crop injury percentage; for 4X 2,4-D CIPV4 / 4X 2,4-D CIPV8: 4 lb ae/acre at VE-V2, V4, V8; for 8X 2,4-D CIPV4 / 8X 2,4-D CIPV8: 8 lb ae/acre at VE-V2, V4, V8; for 16X 2,4-D CIPV4 / 16X 2,4-D CIPV8: 16 lb ae/acre at VE-V2, V4, V8
Description: Separate trait efficacy field trials for quizalofop-P and 2,4-D pressure screening were conducted at one location each with F1 hybrid transgenic plants produced by crossing an inbred plant containing maize event MON89034 with an R1 plant containing MON-HT1, MON-HT2, MON-HT8, MON-HT9, and MON-HT10 with and without operably linked CTP sequences. Transgenic F1 hybrid plants containing maize events NK603×MON89034 were used for comparison as a control.
Three herbicide treatments were used in the trait efficacy field trial for 2,4-D tolerance: (1) 2,4-D amine at 4 lb ac/acre (4×) plus 0.25% v/v NIS applied to VE-V2 followed by V4 followed by V8; (2) 2,4-D amine at 8 lb ac/acre (8×) plus 0.25% v/v NIS applied to VE-V2 followed by V4followed by V8 maize; or (3) 2,4-D amine at 16 lb ac/acre (16×) plus 0.25% v/v NIS applied to VE-V2 followed by V4 followed by V8. Plots were visually rated as above.
The injury rating for the control plants after all 2,4-D applications ranged from 80% to 96.25%. At the highest rate of 2,4-D (16×) applied through V8, the plants containing MON-HT1 or MON-HT2 operably linked to any of the three CTPs (A, B, or C) had better tolerance than plants containing MON-HT1 or MON-HT2 not operably linked to a CTP. Plants containing MON-HT1, MON-HT2, or MON-HT8 with or without an operably linked CTP had better tolerance to 2,4-D at all applications tested compared to plants containing either MON-HT9 or MON-HT10 with an operably linked ‘A’ CTP. Over the range of 2,4-D applications the relative ranking of tolerance was: plants containing MON-HT1 had better tolerance than plants containing MON-HT2 which were in turn better than plants containing MON-HT8. […] Error was calculated using LSD (0.05).

F1 hybrid maize plants [3] = assay: efficacy field trial for 2,4-D tolerance; details: for average injury rating, V4 Growth Stage, 4x 2,4-D / average injury rating, V8 Growth Stage, 4x 2,4-D: 4 lb ae/acre at VE-V2, V4, V8; for average injury rating, V4 Growth Stage, 8x 2,4-D / average injury rating, V8 Growth Stage, 8x 2,4-D: 8 lb ae/acre at VE-V2, V4, V8; for average injury rating, V4 Growth Stage, 16x 2,4-D / average injury rating, V8 Growth Stage, 16x 2,4-D: 16 lb ae/acre at VE-V2, V4, V8
Outline: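 F1 hybrid maize carrying MON89034 crossed with MON-HT events, NK603×MON89034 hybrids as control, grown at two field locations. 2,4-D amine at 2, 4, 8 or 16 lb ac/acre plus 0.25% v/v NIS applied at VE-V2, V4 and V8; plots visually rated for injury after V4 and V8 applications.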

[4] = scale 0 to 100, 2 lb ae/acre at VE-V2, V4, V8, with CTP unless label says no CTP
[5] = scale 0 to 100, with CTP unless label says no CTP
[6] = scale 0 to 100, with CTP unless label says no CTP, listed as MON-HT2 (no CTP)

B1: MON-HT2: engineered oxygenase protein, amino acid sequence SEQ ID NO:18 (protein)
chain: MHAALTPLTNKYRFIDVQPLTGVLGAEITGVDLREPLDDSTWNEILDAFHTYQVIYFPGQAITNEQHIAFSRRFGPVDPVPLLKSIEGYPEVQMIRREANESSRVIGDDWHSDSTFLDAPPAAVVMRAIEVPEYGGDTGFLSMYSAWETLSPTMQATIEGLNVVHSATKVFGSLYQATNWRFSNTSVKVMDVDAGDRETVHPLVVTHPVTGRRALYCNQVYCQKIQGMTDAESKSLLQFLYEHATKFDFTCRVRWKKDQVLVWDNLCTMHRAAPDYAGKFRYLTRTTVAGDKPSR
tolerance to the quizalofop-P application (F1 hybrid maize plants [1]; operably linked to a CTP, FIG. 5A): robust tolerance
average injury rating, V4 Growth Stage, 4x Quizalofop (F1 hybrid maize plants [1]): 1.5
average injury rating, V8 Growth Stage, 4x Quizalofop (F1 hybrid maize plants [1]): 2.5
average injury rating, V4 Growth Stage, 4x Quizalofop (F1 hybrid maize plants [1]; listed as MON-HT2 (no CTP)): 42.5
average injury rating, V8 Growth Stage, 4x Quizalofop (F1 hybrid maize plants [1]; listed as MON-HT2 (no CTP)): 16.3
average injury rating, V4 Growth Stage, 8x Quizalofop (F1 hybrid maize plants [1]): 0.8
average injury rating, V8 Growth Stage, 8x Quizalofop (F1 hybrid maize plants [1]): 3.8
average injury rating, V4 Growth Stage, 8x Quizalofop (F1 hybrid maize plants [1]; listed as MON-HT2 (no CTP)): 76.3
average injury rating, V8 Growth Stage, 8x Quizalofop (F1 hybrid maize plants [1]; listed as MON-HT2 (no CTP)): 52.5
average injury rating, V4 Growth Stage, 16x Quizalofop (F1 hybrid maize plants [1]): 10.0
average injury rating, V8 Growth Stage, 16x Quizalofop (F1 hybrid maize plants [1]): 4.8
average injury rating, V4 Growth Stage, 16x Quizalofop (F1 hybrid maize plants [1]; listed as MON-HT2 (no CTP)): 82.5
average injury rating, V8 Growth Stage, 16x Quizalofop (F1 hybrid maize plants [1]; listed as MON-HT2 (no CTP)): 77.5
average injury rating, V8 Growth Stage, 1x Clethodim (F1 hybrid maize plants [1]): 93.3
average injury rating, V8 Growth Stage, 1x Clethodim (F1 hybrid maize plants [1]; listed as MON-HT2 (no CTP)): 92.0
tolerance to the quizalofop-P application (F1 hybrid maize plants [1]; without a CTP, FIG. 5B): moderate to poor tolerance
4X 2,4-D CIPV4 (F1 hybrid maize plants [2]; CTP A): 5
4X 2,4-D CIPV8 (F1 hybrid maize plants [2]; CTP A): 5
8X 2,4-D CIPV4 (F1 hybrid maize plants [2]; CTP A): 10
8X 2,4-D CIPV8 (F1 hybrid maize plants [2]; CTP A): 7.5
16X 2,4-D CIPV4 (F1 hybrid maize plants [2]; CTP A): 10
16X 2,4-D CIPV8 (F1 hybrid maize plants [2]; CTP A): 20
4X 2,4-D CIPV4 (F1 hybrid maize plants [2]; CTP B): 5
4X 2,4-D CIPV8 (F1 hybrid maize plants [2]; CTP B): 5
8X 2,4-D CIPV4 (F1 hybrid maize plants [2]; CTP B): 5
8X 2,4-D CIPV8 (F1 hybrid maize plants [2]; CTP B): 10
16X 2,4-D CIPV4 (F1 hybrid maize plants [2]; CTP B): 10
16X 2,4-D CIPV8 (F1 hybrid maize plants [2]; CTP B): 25
4X 2,4-D CIPV4 (F1 hybrid maize plants [2]; CTP C): 10
4X 2,4-D CIPV8 (F1 hybrid maize plants [2]; CTP C): 15
8X 2,4-D CIPV4 (F1 hybrid maize plants [2]; CTP C): 10
8X 2,4-D CIPV8 (F1 hybrid maize plants [2]; CTP C): 10
16X 2,4-D CIPV4 (F1 hybrid maize plants [2]; CTP C): 15
16X 2,4-D CIPV8 (F1 hybrid maize plants [2]; CTP C): 20
4X 2,4-D CIPV4 (F1 hybrid maize plants [2]; no CTP): 7.5
4X 2,4-D CIPV8 (F1 hybrid maize plants [2]; no CTP): 7.5
8X 2,4-D CIPV4 (F1 hybrid maize plants [2]; no CTP): 17.5
8X 2,4-D CIPV8 (F1 hybrid maize plants [2]; no CTP): 42.5
16X 2,4-D CIPV4 (F1 hybrid maize plants [2]; no CTP): 25
16X 2,4-D CIPV8 (F1 hybrid maize plants [2]; no CTP): 45
average injury rating, V4 Growth Stage, 2x 2,4-D (F1 hybrid maize plants [3]; [4]): 1.3
average injury rating, V8 Growth Stage, 2x 2,4-D (F1 hybrid maize plants [3]; [4]): 2.5
average injury rating, V8 Growth Stage, 2x 2,4-D (F1 hybrid maize plants [3]; scale 0 to 100, 2 lb ae/acre at VE-V2, V4, V8, with CTP unless label says no CTP, listed as MON-HT2 (no CTP)): 5.0
average injury rating, V4 Growth Stage, 4x 2,4-D (F1 hybrid maize plants [3]; [5]): 0.0
average injury rating, V8 Growth Stage, 4x 2,4-D (F1 hybrid maize plants [3]; [5]): 3.3
average injury rating, V4 Growth Stage, 4x 2,4-D (F1 hybrid maize plants [3]; [6]): 2.5
average injury rating, V8 Growth Stage, 4x 2,4-D (F1 hybrid maize plants [3]; [6]): 8.8
average injury rating, V4 Growth Stage, 8x 2,4-D (F1 hybrid maize plants [3]; [5]): 4.5
average injury rating, V8 Growth Stage, 8x 2,4-D (F1 hybrid maize plants [3]; [5]): 10.0
average injury rating, V4 Growth Stage, 8x 2,4-D (F1 hybrid maize plants [3]; [6]): 13.8
average injury rating, V8 Growth Stage, 8x 2,4-D (F1 hybrid maize plants [3]; [6]): 13.8
average injury rating, V4 Growth Stage, 16x 2,4-D (F1 hybrid maize plants [3]; [5]): 7.5
average injury rating, V8 Growth Stage, 16x 2,4-D (F1 hybrid maize plants [3]; [5]): 15.0
average injury rating, V4 Growth Stage, 16x 2,4-D (F1 hybrid maize plants [3]; [6]): 21.3
average injury rating, V8 Growth Stage, 16x 2,4-D (F1 hybrid maize plants [3]; [6]): 25.0
injury rating after 2,4-D application at V4 growth stage at 8× (F1 hybrid maize plants [3]; without the CTP): 13.75%
injury rating after 2,4-D application at V4 growth stage at 16× (F1 hybrid maize plants [3]; without the CTP): 21.25%
